This passage reports Kd and IC50 results from the Immune Epitope Database (IEDB).

One assay deals with HLA-B*15:42. In words: IEDB peptide-MHC binding, purified MHC/competitive/fluorescence; filed as Kd, often an IC50 or EC50 that approximates it; ≥ and ≤ were set here for values at or beyond the usual limits of such assays.
For the next assay, the target named is HLA-B*45:06. The assay is described as above.
The target in another assay is HLA-B*83:01. The assay is described as above.
For another assay, the target named is HLA-B*08:01. Described as above.
The target in the next assay is HLA-A*11:01. In words: IEDB peptide-MHC binding, purified MHC/competitive/fluorescence; ≥ and ≤ were set here for values at or beyond the usual limits of such assays.
For assay [1], the target named is HLA-A*03:01. Described as above.
In the next assay the target is HLA-B*39:01. In words: IEDB peptide-MHC binding, purified MHC/competitive/fluorescence; filed as Kd, often an IC50 or EC50 that approximates it; ≥ and ≤ were set here for values at or beyond the usual limits of such assays.
For assay [2], the target named is HLA-A*01:01. The description is as above.
For assay [3], the target named is HLA-A*29:02. The assay is described as above. To be noted: source organism: Streptococcus pneumoniae D39.
Another assay deals with HLA-A*69:01. The description is as above.
In the next assay the target is HLA-B*15:01. The description is as above.
The next assay has as its target HLA-B*51:01. The assay is described as above.
The next assay concerns the target HLA-B*27:03. The assay is described as above.
The target of a further assay is HLA-B*15:17. The description is as above.
The target of the next assay is HLA-B*46:01. Described as above.
A further assay addresses HLA-A*26:01. Described as above.
The target in another assay is HLA-B*57:01. The assay is described as above.
The next assay addresses HLA-A*02:19. In words: IEDB peptide-MHC binding, purified MHC/direct/fluorescence; filed as Kd, often an IC50 or EC50 that approximates it; ≥ and ≤ were set here for values at or beyond the usual limits of such assays.
Another assay concerns the target HLA-A*24:03. Described as above.
The target of a further assay is HLA-A*02:16. Described as above.
Assay [4] addresses HLA-A*29:02. Described as above.
The target of the next assay is HLA-A*02:12. Described as above.
The target of assay [5] is HLA-A*03:01. The description is as above.
Another assay deals with HLA-A*02:11. The description is as above.
In the next assay the target is HLA-A*02:03. The description is as above.
Assay [6] addresses HLA-A*02:01. In words: IEDB peptide-MHC binding, purified MHC/competitive/fluorescence; ≥ and ≤ were set here for values at or beyond the usual limits of such assays.
The target in a further assay is HLA-B*35:01. In words: IEDB peptide-MHC binding, purified MHC/competitive/fluorescence; filed as Kd, often an IC50 or EC50 that approximates it; ≥ and ≤ were set here for values at or beyond the usual limits of such assays. To be noted: source organism: Yersinia pestis Antiqua.
Assay [7] deals with HLA-A*02:01. The description is as above.
The next assay deals with HLA-B*18:01. Described as above. Particulars: source organism: Kurkino virus.
The target of another assay is HLA-A*68:02. In words: IEDB peptide-MHC binding, purified MHC/direct/fluorescence; filed as Kd, often an IC50 or EC50 that approximates it; ≥ and ≤ were set here for values at or beyond the usual limits of such assays. Particulars: source organism: Orthohantavirus sangassouense.
In a further assay the target is HLA-B*07:02. Described as above. To be noted: source organism: Tanganya virus.
Assay [8] deals with HLA-A*01:01. The description is as above. To be noted: source organism: Mus musculus.
The target in another assay is HLA-A*24:02. In words: IEDB peptide-MHC binding, purified MHC/competitive/fluorescence; ≥ and ≤ were set here for values at or beyond the usual limits of such assays.
Setting [9] is: source organism: Human herpesvirus 4 strain B95-8.
The mark [10] stands for this setting: source organism: Vaccinia virus WR.
Setting [11] is: source organism: Escherichia coli 536.
[12] abbreviates: source organism: Orthohantavirus andesense.
Setting [13] is: source organism: Sudan ebolavirus.
The mark [14] stands for this setting: source organism: Yersinia pestis Antiqua.
[15] abbreviates: source organism: Orthohantavirus sangassouense.
Where [16] appears, read: source organism: Zaire ebolavirus.
The mark [17] stands for this setting: source organism: Vaccinia virus Copenhagen.

A value given as a limit tells only on which side of the number the result lay.

As for DEVEFLGHY, the Kd with HLA-B*15:42 (setting [9]), with HLA-B*45:06 (setting [9]) and with HLA-B*83:01 (setting [9]) was at least 5 µM each time.

The sequence ENALRGVAV displayed a Kd with HLA-B*08:01 (source organism: Escherichia coli) of 0.377 µM.

Consider ETLGYCMIR, for which the concentration for half-maximal inhibition (IC50) in the assay with HLA-A*11:01 (setting [10]) was 25.2 µM; in the assay with HLA-A*03:01 [1] (setting [10]), at least 248 µM.

In the case of FGGVPREVL, the equilibrium dissociation constant (Kd) with HLA-B*39:01 (setting [11]) and with HLA-B*08:01 (setting [11]) was at least 20 µM each time.

Consider FLQMENLMY, for which the Kd with HLA-A*01:01 [2] (source organism: Bacillus anthracis str. A0488) worked out at 0.0021 µM.

For the sequence GVNFNLYYY, the dissociation constant (Kd) with HLA-A*01:01 [2] (source organism: Streptococcus pneumoniae D39) was 0.021 µM; in the assay with HLA-A*29:02 [3], at most 0.0001 µM.

As to IQNALEKAL, the Kd was at least 20 µM with HLA-A*69:01 (setting [12]); 0.197 µM with HLA-B*15:01 (setting [12]); at least 20 µM in the assay with HLA-B*51:01 (setting [12]); at least 20 µM with HLA-B*27:03 (setting [12]); at least 20 µM in the assay with HLA-B*15:17 (setting [12]); at least 20 µM with HLA-B*46:01 (setting [12]). Further, the equilibrium dissociation constant (Kd) with HLA-A*26:01 (setting [12]), in the assay with HLA-B*57:01 (setting [12]), with HLA-A*02:19 (setting [12]), with HLA-A*24:03 (setting [12]), in the assay with HLA-A*02:16 (setting [12]) and in the assay with HLA-A*29:02 [4] (setting [12]) was at least 20 µM each time. Moreover, the dissociation constant (Kd) in the assay with HLA-A*02:12 (setting [12]), with HLA-A*03:01 [5] (setting [12]), with HLA-A*02:11 (setting [12]) and with HLA-A*02:03 (setting [12]) was at least 20 µM each time.

As for LRRWGGTCR, the IC50 is at least 645 µM with HLA-A*02:01 [6] (setting [13]) and at least 200 µM with HLA-A*03:01 [1] (setting [13]).

MPARLWLCL: the Kd is 0.0008 µM with HLA-B*35:01, at least 20 µM in the assay with HLA-B*51:01 (setting [14]), 0.108 µM with HLA-B*39:01 (setting [14]) and 0.383 µM in the assay with HLA-B*08:01 (setting [14]).

For QAFYTRVLK, the figures for the half-maximal inhibitory concentration (IC50) with HLA-A*11:01 (setting [10]) and with HLA-A*03:01 [1] (setting [10]) were 0.311 µM and 1.47 µM, respectively.

In the assay with HLA-B*08:01 (source organism: Influenza A virus (A/Northern Territory/60/1968(H3N2))), RLKTTENSF came in with a Kd of at least 20 µM.

Consider SPGDNSAKF, for which the Kd with HLA-A*69:01 (source organism: Kurkino virus), with HLA-B*15:01 (source organism: Kurkino virus), with HLA-A*02:01 [7] (source organism: Kurkino virus), in the assay with HLA-B*18:01, in the assay with HLA-B*51:01 (source organism: Kurkino virus) and in the assay with HLA-B*27:03 (source organism: Kurkino virus) was at least 20 µM each time. Also, the Kd with HLA-B*39:01 (source organism: Kurkino virus), in the assay with HLA-B*15:17 (source organism: Kurkino virus), with HLA-B*46:01 (source organism: Kurkino virus), with HLA-A*26:01 (source organism: Kurkino virus), with HLA-B*57:01 (source organism: Kurkino virus) and in the assay with HLA-A*02:19 (setting [15]) was at least 20 µM each time. Moreover, the Kd is at least 20 µM in the assay with HLA-A*68:02; at least 20 µM in the assay with HLA-A*24:03 (setting [15]); at least 20 µM in the assay with HLA-A*02:16 (setting [15]); 1.96 µM with HLA-B*07:02; at least 20 µM in the assay with HLA-A*29:02 [4] (setting [15]); at least 20 µM with HLA-A*02:12 (setting [15]). For the same sequence, the Kd in the assay with HLA-A*03:01 [5] (setting [15]), with HLA-A*02:11 (setting [15]) and with HLA-A*02:03 (setting [15]) was at least 20 µM throughout.

Regarding SVDSDHLGY, the equilibrium dissociation constant (Kd) with HLA-A*69:01 (source organism: Homo sapiens) was at least 20 µM; with HLA-B*15:42 (source organism: Homo sapiens), at least 5 µM; in the assay with HLA-A*02:01 [7] (source organism: Homo sapiens), at least 20 µM; in the assay with HLA-B*51:01 (source organism: Homo sapiens) it was at least 20 µM; with HLA-B*27:03 (source organism: Homo sapiens), at least 20 µM; with HLA-B*45:06 (source organism: Homo sapiens), at least 5 µM. Also, the equilibrium dissociation constant (Kd) was at least 20 µM in the assay with HLA-B*39:01 (source organism: Homo sapiens); at least 20 µM with HLA-B*46:01 (source organism: Homo sapiens); at least 20 µM with HLA-B*57:01 (source organism: Homo sapiens); at least 5 µM with HLA-B*83:01 (source organism: Homo sapiens); 0.0007 µM with HLA-A*01:01 [8].

Turning to TSPQSLTTK, the results for the half-inhibitory concentration (IC50) with HLA-A*11:01 (setting [16]) and in the assay with HLA-A*03:01 [1] (setting [16]) were 1.76 µM and 22.3 µM, respectively.

In the assay with HLA-A*03:01 [1] (source organism: Mus musculus), VLFGLGFAI showed an IC50 of 12.6 µM.

In the case of VSSGKNIKR, the IC50 in the assay with HLA-A*02:01 [6] (setting [16]) is at least 140 µM; with HLA-A*11:01 (setting [16]), 4.31 µM; with HLA-A*03:01 [1] (setting [16]) it was at least 82.2 µM; with HLA-A*24:02 (setting [16]) it was at least 163 µM.

Regarding VYGNIKHKE, the IC50 with HLA-A*11:01 (setting [17]) was 69.1 µM; with HLA-A*03:01 [1] (setting [17]), at least 158 µM; with HLA-A*24:02 (setting [17]), 34.9 µM.
